Laboratory results reported in paper PMC4333385.

Tested on: Nc1ncnc2c1ncn2[C@@H]1O[C@H](COP(=O)(O)OP(=O)(O)OP(=O)(O)O)[C@@H](O)[C@H]1O
Test: steady-state Pi release, MDCC-PBP stopped-flow, Hill fit
Assay type: biochemical, Escherichia coli
Conditions: DNA-free RecQ, SF50 buffer pH 7.5, 5 mM MgCl2, 50 mM NaCl, 25 °C, Hill coefficient 1.3
Text: steady-state Pi release, MDCC-PBP stopped-flow, Hill fit on E. coli RecQ helicase

For “E. coli RecQ helicase (Escherichia coli K-12)”, the K0.5 was 28 ± 2 µM and the kcat was 0.53 ± 0.05 s⁻¹.
